The source of these data is patent US9499823B2, “Constructs expressing chimeric receptors and use thereof for the controlled activation of defence response to pathogens in plants” (priority 2009, dated 2016).

In the assay the test system is Pectobacterium carotovorum subsp. carotovorum. In words: Infection assay with Pectobacterium carotovorum on transgenic Arabidopsis leaves. Type of assay: in vivo. The note with it: transgenic Arabidopsis vs Col-0 or Col-0 efr, 24 h, 5×10^7 CFU/ml. The procedure:
Inoculum concentration was 5×10^7 CFU/ml). Values are means±SE of at least 16 lesions. Asterisks indicate statistically significant differences against control plants (Col-0 or Col-0 efr), according to Student's t test (*, p<0.0005).
Agrobacterium tumefaciens GV3101 strain infections was performed as described in Katagiri et al., (2002) and using a concentration of Agrobacterium corresponding at an OD600 of 1.0 in 10 mM MgCl2 and 600 μM acetosyringone. After 24 h of infiltration, serial dilution of Agrobacterium colonies were deposited on LB agar supplemented with gentamycin and rifampicin and grown for 2-3 days at 28° C. in the dark. At least 5 independent plants and 3 different leaves by plant, were used per experiment. Pectobacterium carotovorum subsp. carotovorum infections Pectobacterium carotovorum subsp. carotovorum (formely Erwinia carotovora; Gardan et al., 2003) (strain DMSZ 30169) was obtained from DSMZ GmbH (Germany). A liquid colture using 10 ml LB medium was prepared. […]
For infection, fully developed leaves of 4 week old Arabidopsis plants were detached and placed in 0.8% agar Petri dishes. […] Symptoms were scored measuring the area of macerated tissue after 24 hour post inoculation at 22° C. and 12 h photoperiod. Area was measured by ImageJ software. […]

Entries after “also recorded” stand apart in the source; their conditions may differ.

B1: WEG: chimeric receptor: WAK1 ectodomain fused to the TM-iJM-kinase portion of EFR, GFP-fused (protein)
chain: QHQPGENCQNKCGNITIEYPFGISSGCYYPGNESFSITCKEDRPHVLSDIEVANFNHSGQLQVLLNRSSTCYDEQGKKTEEDSSFTLENLSLSANNKLTAVGCNALSLLDTFGMQNYSTACLSLCDSPPEADGECNGRGCCRVDVSAPLDSYTFETTSGRIKHMTSFHDFSPCTYAFLVEDDKFNFSSTEDLLNLRNVMRFPVLLDWSVGNQTCEQVGSTSICGGNSTCLDSTPRNGYICRCNEGFDGNPYLSAGCQDVNECTTSSTIHRHNCSDPKTCRNKVGGFYCKCQSGYRLDTTTMSCKRKEVVSGICIGIASLLLIIIVASLCWFMKRKKKNNASDGNPSDSTTLGMFHEKVSYEELHSATSRFSSTNLIGSGNFGNVFKGLLGPENKLVAVKVLNLLKHGATKSFMAECETFKGIRHRNLVKLITVCSSLDSEGNDFRALVYEFMPKGSLDMWLQLEDLERVNDHSRSLTPAEKLNIAIDVASALEYLHVHCHDPVAHCDIKPSNILLDDDLTAHVSDFGLAQLLYKYDRESFLNQFSSAGVRGTIGYAAPEYGMGGQPSIQGDVYSFGILLLEMFSGKKPTDESFAGDYNLHSYTKSILSGCTSSGGSNAIDEGLRLVLQVGIKCSEEYPRDRMRTDEAVRELISIRSKFFSSKTTITESPRDAPQSSPQEWMLNTDMHTM
modifications: left off: large carriers
Consider B1, for which the “resistance to Pectobacterium carotovorum subsp. carotovorum” value is on record as “increased resistance; also recorded: confers resistance”.
